Experimental data published in US20230183379A1.

Biological target: human IL-6 (human) (UniProt P05231)
Test: cell-based or functional assay

Sequence of human IL-6 (human) (P05231 30-212 limits assumed): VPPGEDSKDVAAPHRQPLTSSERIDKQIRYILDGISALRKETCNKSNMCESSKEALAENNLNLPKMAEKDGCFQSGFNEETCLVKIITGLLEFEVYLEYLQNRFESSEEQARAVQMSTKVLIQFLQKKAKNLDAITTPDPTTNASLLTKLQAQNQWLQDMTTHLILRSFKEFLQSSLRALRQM

B1: BE8 (mouse monoclonal anti-IL6 neutralizing antibody) (antibody, from another filing, V domains shown)
VH: QVTLKESGPGILKPSQTLSLTCSFSGFSLSTSGMGVGWIRQPSGKGLEWLAHIWWDDDKYYNPSLKSQLTISKDTSRNQVFLKITSVDTADTATYYCARSYDDYLYYALDYWGQGTSVTVSS
VL: DIVMTQSPATLSVTPGDRVSLSCRASQSISDYLHWYQQKSHESPRLLIKSVSQSISGIPSRFSGSGSGSDFTLSINSVEPEDVGVYYCQNGHSFPLTFGAGTKLELK
Binder B1 has an inhibition of growth of XG6 cells in 40 pM IL-6, IC50 of 3 nM and an inhibition of growth of XG7 cells in 40 pM IL-6, IC50 of 6 nM.
